Publication PMC6916386

B1: Single stranded nucleic acid binding protein (Sbp1), wild type, galactose-inducible with ZZ (protein A) tag, from wild-type yeast R153 [modified: arginine-methylated in yeast … (parent)
chain 1: MSAEIEEATNAVNNLSINDSEQQPRAPTHKTVIDPEDTIFIGNVAHECTEDDLKQLFVEEFGDEVSVEIPIKEHTDGHIPASKHALVKFPTKIDFDNIKENYDTKVVKDREIHIKRARTPGQMQRGGFRGRGGFRGRGGFRGGFRGGYRGGFRGRGNFRGRGGARGGFNGQKREKIPLDQMERSKDTLYINNVPFKATKEEVAEFFGTDADSISLPMRKMRDQHTGRIFTSDSANRGMAFVTFSGENVDIEAKAEEFKGKVFGDRELTVDVAVIRPENDEEEIEQETGSEEKQE
chain 2: MTDETAHPTQSASKQESAALKQTGDDQQESQQQRGYTNYNNGSNYTQKKPYNSNRPHQQRGGKFGPNRYNNRGNYNGGGSFRGGHMGANSSNVPWTGYYNNYPVYYQPQQMAAAGSAPANPIPVEEKSPVPTKIEITTKSGEHLDLKEQHKAKLQSQERSTVSPQPESKLKETSDSTSTSTPTPTPSTNDSKASSEENISEAEKTRRNFIEQVKLRKAALEKKRKEQLEGSSGNNNIPMKTTPENVEEKGSDKPEVTEKTKPAEEKSAEPEVKQETPAEEGEQGEKGQIKEESTPKVLTFAERLKLKKQQKEREEKTEGKENKEVPVQEETKSAIESAPVPPSEQVKEETEVAETEQSNIDESATTPAIPTKSDEAEAEVEAEAGDAGTKIGLEAEIETTTDETDDGTNTVSHILNVLKDATPIEDVFSFNYPEGIEGPDIKYKKEHVKYTYGPTFLLQFKDKLNVKADAEWVQSTASKIVIPPGMGRGNRSRDSGRFGNNSSRGHDFRNTSVRNMDDRANSRTSSKRRSKRMNDDRRSNRSYTSRRDRERGSYRNEEKREDDKPKEEVAPLVPSANRWVPKFKSKKTEKKLAPDGKTELLDKDEVERKMKSLLNKLTLEMFDAISSEILAIANISVWETNGETLKAVIEQIFLKACDEPHWSSMYAQLCGKVVKELNPDITDETNEGKTGPKLVLHYLVARCHAEFDKGWTDKLPTNEDGTPLEPEMMSEEYYAAASAKRRGLGLVRFIGFLYRLNLLTGKMMFECFRRLMKDLTDSPSEETLESVVELLNTVGEQFETDSFRTGQATLEGSQLLDSLFGILDNIIQTAKISSRIKFKLIDIKELRHDKNWNSDKKDNGPKTIQQIHEEEERQRQLKNNSRSNSRRTNNSSNRHSFRRDAPPASKDSFITTRTYSQRNSQRAPPPKEEPAAPTSTATNMFSALMGESDDEE

Variants of: B1
Test: glutathione pull-down, PAP blot band quantified
Conditions: with eukaryotic translation initiation factor 4G1 fused to GST (eIF4G1-GST) [yeast]; purified eIF4G1-GST incubated with yeast lysate; n = 3; parent: 100; read off a plot

Variant | percent of parent [% binding]
chain 1 R125A R129A R131A R135A R137A R141A R145A R149A R153A R155A R159A R161A R165A | 25
